Laboratory results: patent US20020142359A1 (AstraZeneca / MedImmune, published 2002)
Numbering of substitutions follows the chain as printed. In names and notes the source's numbering stands.

Columns and labels:
[1] = target: CEA on LS174T colo-rectal tumour cells (UniProt P06731); test: cell-based or functional assay
[2] = target: T1, CEA (Carcinoembryonic antigen), purified antigen (UniProt P06731 35-685, limits assumed); test: CEA ELISA on media from NS0 clones, detected with anti-human kappa peroxidase conjugate
T1 construct: Purified CEA, 50 ng per well in the CEA ELISA; also called native CEA; untreated CEA
T1 sequence (looked up): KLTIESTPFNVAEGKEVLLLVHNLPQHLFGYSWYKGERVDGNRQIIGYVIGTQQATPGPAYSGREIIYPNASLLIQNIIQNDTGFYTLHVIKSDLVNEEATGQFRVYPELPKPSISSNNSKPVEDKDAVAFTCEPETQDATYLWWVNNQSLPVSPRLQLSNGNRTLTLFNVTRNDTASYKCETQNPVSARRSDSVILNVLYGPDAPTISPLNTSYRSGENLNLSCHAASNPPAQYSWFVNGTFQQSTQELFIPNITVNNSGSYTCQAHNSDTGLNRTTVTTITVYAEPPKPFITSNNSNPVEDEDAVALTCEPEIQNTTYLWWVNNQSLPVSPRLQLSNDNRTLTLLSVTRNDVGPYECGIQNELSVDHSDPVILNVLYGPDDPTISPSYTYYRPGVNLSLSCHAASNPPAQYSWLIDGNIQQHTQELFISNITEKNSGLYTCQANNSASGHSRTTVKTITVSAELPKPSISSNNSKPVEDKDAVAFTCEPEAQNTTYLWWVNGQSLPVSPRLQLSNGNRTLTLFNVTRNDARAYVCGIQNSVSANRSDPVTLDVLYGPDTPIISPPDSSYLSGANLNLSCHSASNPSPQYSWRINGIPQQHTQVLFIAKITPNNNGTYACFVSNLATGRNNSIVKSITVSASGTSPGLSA

[3] = target: T1, CEA (Carcinoembryonic antigen), …; test: CEA ELISA (50 ng CEA per well) on NS0 culture supernatants, detected with HRPO anti-human kappa
Description: (§1) For the CEA ELISA each well of a 96 well immunoplate (NUNC MAXISORB™) was coated with 50 ng CEA in 50 mM carbonate/bicarbonate coating buffer pH9.6 (buffer capsules—Sigma C3041) and incubated at 4° C. overnight. The plate was washed three times with PBS+0.05% Tween 20 and then blocked 150 μl per well of 1% BSA in PBS +0.05% Tween 20 for 1 hour at room temperature. The plate was washed as previously described, 100 μl of test sample added per well and incubated at room temperature for 2 hours. Again the plate was washed three times with PBS+0.05% Tween 20, 100 μl per well of a 1/500 dilution of HRPO-labelled goat anti-human kappa antibody (Sigma A 7164) was added, in 1% BSA in PBS-Tween 20 and incubated at room temperature on a rocking platform for at least 1 hour. The plate was washed as before and then once more with PBS. To detect binding add 100 μl per well developing solution (one capsule of phosphate-citrate buffer—Sigma P4922—dissolved in 100 mls H₂O to which is added one 30 mg tablet o-phenylenediamine dihydrochloride—Sigma P8412) and incubated for up to 15 minutes. The reaction was stopped by adding 75 μl 2M H₂SO₄, and absorbance read at 490 nm.

[4] = target: T1, CEA (Carcinoembryonic antigen), …; test: CEA ELISA on NS0 culture supernatants (Example 39)
Description: as §1
(§2) As before, the human F(ab′)₂ antibody fragment was then purified from the culture supernatant as described in Example 102.

[5] = target: T1, CEA (Carcinoembryonic antigen), …; test: CEA ELISA on NS0 culture supernatants (Example 41)
Description: as §1, §2

[6] = target: T1, CEA (Carcinoembryonic antigen), …; test: CEA ELISA on NS0 culture supernatants (Example 43)
Description: as §1, §2

[7] = target: T1, CEA (Carcinoembryonic antigen), …; test: CEA ELISA on NS0 culture supernatants (Example 47)
Description: as §1, §2

[8] = target: T1, CEA (Carcinoembryonic antigen), …; test: CEA ELISA on NS0 culture supernatants (Example 45)
Description: as §1, §2

[9] = target: T1, CEA (Carcinoembryonic antigen), …; test: CEA ELISA on NS0 culture supernatants (Example 42)
Description: as §1, §2

[10] = target: T1, CEA (Carcinoembryonic antigen), …; test: CEA ELISA on NS0 culture supernatants (Example 14)
Description: as §1

[11] = target: T1, CEA (Carcinoembryonic antigen), …; test: EIA of hybridoma supernatants against native CEA; line 806.077 was cloned from one of the positive wells

Work on “human B7.1-murine A5B7 F(ab')2 fusion protein (AB7)” yielded a [3H] thymidine incorporation by T cells on anti-CD3 coated wells (T cells + LS174T/fusion protein) [1] of 41800 cpm, a [3H] thymidine uptake, fold over no co-stimulation [1] of over 11 fold and a [3H] thymidine uptake, fold over tumour cells alone [1] of over 3 fold.

B1: pro-[A248S,G251T,D253K]HCPB-linker-F(ab')2(humanised 806.077) (other)
heavy: HHGGEHFEGEKVFRVNVEDENHINIIRELASTTQIDFWKPDSVTQIKPHSTVDFRVKAEDTVTVENVLKQNELQYKVLISNLRNVVEAQFDSRVRATGHSYEKYNKWETIEAWTQQVATENPALISRSVIGTTFEGRAIYLLKVGKAGQNKPAIFMDCGFHAREWISPAFCQWFVREAVRTYGREIQVTELLDKLDFYVLPVLNIDGYIYTWTKSRFWRKTRSTHTGSSCIGTDPNRNFDAGWCEIGASRNPCDETYCGPAAESEKETKALADFIRNKLSSIKAYLTIHSYSQMMIYPYSYAYKLGENNAELNALAKATVKELASLHGTKYTYGPGATTIYPSAGTSKDWAYDQGIRYSFTFELRDTGRYGFLLPESQIRATCEETFLAIKYVASYVLEHLYGGGSGGGSGGGSEVQLQQSGPGLVRPSQTLSLTCTASGFNIKDNYMHWVRQPPGRGLEWIGWIDPENGDTEYAPKFRGRVTMLADTSKNQFSLRLSSVTAADTAVYYCHVLIYAGYLAMDYWGQGTLVTVSSASTKGPSVFPLAPCSRSTSGGTAALGCLVKDYFPEPVTVSWNSGALTSGVHTFPAVLQSSGLYSLSSVVTVPSSSLGTQTYTCNVNHKPSNTKVDKRVELKTPLGDTTHTCPRCPEPKSCDTPPPCPRCPEPKSCDTPPPCPRCPEPKSCDTPPPCPRCPAPELLGG
light: DIQMTQSPSSLSASVGDRVTITCSASSSVTYMHWYQQKPGKAPKLWIYSTSNLASGVPSRFSGSGSGTDYTFTISSLQPEDIATYYCQQRSTYPLTFGQGTKLEIKRTVAAPSVFIFPPSDEQLKSGTASVVCLLNNFYPREAKVQWKVDNALQSGNSQESVTEQDSKDSTYSLSSTLTLSKADYEKHKVYACEVTHQGLSSPVTKSFNRGEC
notes: Antibody-enzyme fusion secreted by NS0 cells
B1: binds [2].

B2: humanised 806.077 HuVH1/HuVK1 HuIgG2 F(ab')2 (Initial humanised antibody) (antibody, V domains shown)
VH: EVQLQQSGPGLVRPSQTLSLTCTASGFNIKDNYMHWVRQPPGRGLEWIGWIDPENGDTEYAPKFRGRVTMLADTSKNQFSLRLSSVTAADTAVYYCHVLIYAGYLAMDYWGQGTLVTVSS
VL: DIQMTQSPSSLSASVGDRVTITCSASSSVTYMHWYQQKPGKAPKLLIYSTSNLASGVPSRFSGSGSGTDYTFTISSLQPEDIATYYCQQRSTYPLTFGQGTKLEIKR
notes: F(ab')2 fragment secreted by NS0 cells and tested as culture supernatant
B2: binds [3].

B3: humanised 806.077 HuVH1/HuVK1 HuIgG1 F(ab')2 (antibody, V domains shown)
VH: B2 VH
VL: B2 VL
notes: F(ab')2 fragment from NS0 supernatant; also called HuVH1-HuIgG1 + HuVK1-HuCK
B3: binds [4].

B4: humanised 806.077 HuVH1/HuVK1 HuIgG3 F(ab')2 (antibody, V domains shown)
VH: B2 VH
VL: B2 VL
notes: F(ab')2 fragment from NS0 supernatant; also called HuVH1-HuIgG3 + HuVK1-HuCK
B4: binds [5].

B5: humanised 806.077 HuVH1/HuVK3 HuIgG2 F(ab')2 (antibody, V domains shown)
VH: B2 VH
VL: B2 VL with D1Q, Q3V, M4L
notes: F(ab')2 fragment from NS0 supernatant
B5: binds [6].

B6: humanised 806.077 HuVH1/HuVK4 HuIgG3 F(ab')2 (antibody, V domains shown)
VH: B2 VH
VL: B2 VL with L46W
notes: F(ab')2 fragment from NS0 supernatant; also called HuVH1-HuIgG3 + HuVK4-HuCK
B6: binds [7].

B7: humanised 806.077 HuVH1/HuVK4 HuIgG1 F(ab')2 (antibody, V domains shown)
VH: B2 VH
VL: B2 VL with L46W
notes: F(ab')2 fragment from NS0 supernatant; also called HuVH1-HuIgG1 + HuVK4-HuCK
B7: binds [8].

B8: humanised 806.077 HuVH1/HuVK3 HuIgG1 F(ab')2 (antibody, V domains shown)
VH: B2 VH
VL: B2 VL with D1Q, Q3V, M4L
notes: F(ab')2 fragment from NS0 supernatant; also called HuVH1-HuIgG1 + HuVK3-HuCK
B8: binds [9].

B9: humanised 806.077 HuVH1/HuVK4 HuIgG2 F(ab')2 (antibody, V domains shown)
VH: B2 VH
VL: B2 VL with L46W
notes: as for B5
B9: binds [10].

B10: 806.077 antibody (antibody, V domains shown)
VH: EVQLQQSGAELVRSGASVKLSCTASGFNIKDNYMHWVKQRPEQGLEWIAWIDPENGDTEYAPKFRGKATLTADSSSNTAYLHLSSLTSEDTAVYYCHVLIYAGYLAMDYWGQGTSVAVSS
VL: DIELTQSPAIMSASPGEKVTITCSASSSVTYMHWFQQKPGTSPKLWIYSTSNLASGVPARFSGSGSGTSYSLTISRMEAEDAATYYCQQRSTYPLTFGAGTKLELKR
notes: The cDNA primers hybridise to murine IgG1 CH1 and murine kappa constant regions
B10: binds [11].
